Columns and labels:
SNX14 = molecular target: T1, SNX14 (human, UniProt Q9Y5W7 1-946, limits assumed); assay: IP/MS, LZTR1 R810W-FLAG, U87
T1 sequence (looked up): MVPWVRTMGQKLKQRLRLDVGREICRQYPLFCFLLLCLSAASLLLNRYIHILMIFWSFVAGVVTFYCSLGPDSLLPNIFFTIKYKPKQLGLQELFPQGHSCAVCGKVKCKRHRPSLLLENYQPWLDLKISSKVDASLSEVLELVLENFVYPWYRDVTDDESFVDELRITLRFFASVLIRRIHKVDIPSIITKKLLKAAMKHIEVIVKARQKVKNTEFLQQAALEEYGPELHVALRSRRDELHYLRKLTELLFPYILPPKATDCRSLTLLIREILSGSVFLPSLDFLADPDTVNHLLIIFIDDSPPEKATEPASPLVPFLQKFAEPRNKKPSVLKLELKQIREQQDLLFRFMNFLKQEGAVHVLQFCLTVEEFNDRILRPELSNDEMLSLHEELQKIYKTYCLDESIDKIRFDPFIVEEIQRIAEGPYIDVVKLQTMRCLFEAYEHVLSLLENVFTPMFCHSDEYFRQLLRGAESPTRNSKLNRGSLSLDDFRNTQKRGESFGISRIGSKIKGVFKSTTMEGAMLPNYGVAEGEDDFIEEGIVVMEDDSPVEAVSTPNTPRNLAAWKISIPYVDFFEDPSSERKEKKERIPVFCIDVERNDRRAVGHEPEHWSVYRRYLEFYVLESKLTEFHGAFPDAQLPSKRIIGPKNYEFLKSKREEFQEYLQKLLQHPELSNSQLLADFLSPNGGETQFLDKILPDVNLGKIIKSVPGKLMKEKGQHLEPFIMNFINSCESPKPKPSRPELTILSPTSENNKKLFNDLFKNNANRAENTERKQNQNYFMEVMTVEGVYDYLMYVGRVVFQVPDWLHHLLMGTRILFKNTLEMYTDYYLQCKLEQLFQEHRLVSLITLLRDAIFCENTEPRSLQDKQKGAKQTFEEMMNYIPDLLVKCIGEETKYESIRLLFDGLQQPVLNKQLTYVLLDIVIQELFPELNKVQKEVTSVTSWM
Outline: (§1)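 Extracted peptides in 3% acetonitrile/0.1% formic acid ran on a 50 cm C18 column into an Orbitrap Fusion, with MaxQuant identification and spectral counting.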

RNF123 = molecular target: T2, RNF123 (human, UniProt Q5XPI4 2-1314, limits assumed); assay: IP/MS, LZTR1 R810W-FLAG, U87
T2 sequence (looked up): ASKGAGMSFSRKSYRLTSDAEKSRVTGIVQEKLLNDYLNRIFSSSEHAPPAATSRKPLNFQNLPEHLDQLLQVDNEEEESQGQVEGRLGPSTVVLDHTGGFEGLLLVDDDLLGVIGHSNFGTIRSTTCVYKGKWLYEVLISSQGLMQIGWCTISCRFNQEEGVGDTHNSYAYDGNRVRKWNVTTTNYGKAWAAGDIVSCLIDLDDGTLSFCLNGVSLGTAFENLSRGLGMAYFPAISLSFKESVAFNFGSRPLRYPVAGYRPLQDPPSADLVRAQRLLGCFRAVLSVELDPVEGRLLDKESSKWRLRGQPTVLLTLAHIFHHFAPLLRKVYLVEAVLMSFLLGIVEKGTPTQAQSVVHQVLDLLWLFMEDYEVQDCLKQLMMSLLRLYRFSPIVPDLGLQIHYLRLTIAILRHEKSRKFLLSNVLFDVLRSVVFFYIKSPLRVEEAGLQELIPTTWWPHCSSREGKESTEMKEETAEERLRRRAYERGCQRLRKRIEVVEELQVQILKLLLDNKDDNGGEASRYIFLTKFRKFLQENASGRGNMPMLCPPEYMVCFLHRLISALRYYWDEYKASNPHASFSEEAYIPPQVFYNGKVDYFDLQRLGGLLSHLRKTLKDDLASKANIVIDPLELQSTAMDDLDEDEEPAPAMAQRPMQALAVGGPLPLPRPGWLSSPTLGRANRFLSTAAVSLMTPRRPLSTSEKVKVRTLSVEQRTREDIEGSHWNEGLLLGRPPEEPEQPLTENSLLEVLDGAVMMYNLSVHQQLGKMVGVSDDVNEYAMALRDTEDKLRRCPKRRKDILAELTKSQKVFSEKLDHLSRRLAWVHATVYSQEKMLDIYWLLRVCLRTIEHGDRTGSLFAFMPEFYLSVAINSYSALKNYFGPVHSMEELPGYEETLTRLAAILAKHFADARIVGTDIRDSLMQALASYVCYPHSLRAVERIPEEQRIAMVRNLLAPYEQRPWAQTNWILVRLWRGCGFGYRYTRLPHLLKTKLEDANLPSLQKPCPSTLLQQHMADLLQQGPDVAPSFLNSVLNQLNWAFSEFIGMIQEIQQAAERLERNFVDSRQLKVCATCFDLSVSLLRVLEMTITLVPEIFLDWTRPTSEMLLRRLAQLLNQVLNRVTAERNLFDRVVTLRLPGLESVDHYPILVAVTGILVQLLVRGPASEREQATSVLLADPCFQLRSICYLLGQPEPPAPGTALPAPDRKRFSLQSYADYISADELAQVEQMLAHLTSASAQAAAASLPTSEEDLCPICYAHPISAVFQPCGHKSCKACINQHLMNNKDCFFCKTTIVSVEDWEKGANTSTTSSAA
Outline: as §1

B1: LZTR1 R810W-FLAG (other, human, UniProt Q8N653 1-840, looked up)
chain: MAGPGSTGGQIGAAALAGGARSKVAPSVDFDHSCSDSVEYLTLNFGPFETVHRWRRLPPCDEFVGARRSKHTVVAYKDAIYVFGGDNGKTMLNDLLRFDVKDCSWCRAFTTGTPPAPRYHHSAVVYGSSMFVFGGYTGDIYSNSNLKNKNDLFEYKFATGQWTEWKIEGRLPVARSAHGATVYSDKLWIFAGYDGNARLNDMWTIGLQDRELTCWEEVAQSGEIPPSCCNFPVAVCRDKMFVFSGQSGAKITNNLFQFEFKDKTWTRIPTEHLLRGSPPPPQRRYGHTMVAFDRHLYVFGGAADNTLPNELHCYDVDFQTWEVVQPSSDSEVGGAEVPERACASEEVPTLTYEERVGFKKSRDVFGLDFGTTSAKQPTQPASELPSGRLFHAAAVISDAMYIFGGTVDNNIRSGEMYRFQFSCYPKCTLHEDYGRLWESRQFCDVEFVLGEKEECVQGHVAIVTARSRWLRRKITQARERLAQKLEQEAAPVPREAPGVAAGGARPPLLHVAIREAEARPFEVLMQFLYTDKIKYPRKGHVEDVLLIMDVYKLALSFQLCRLEQLCRQYIEASVDLQNVLVVCESAARLQLSQLKEHCLNFVVKESHFNQVIMMKEFERLSSPLIVEIVRRKQQPPPRTPLDQPVDIGTSLIQDMKAYLEGAGAEFCDITLLLDGHPRPAHKAILAARSSYFEAMFRSFMPEDGQVNISIGEMVPSRQAFESMLRYIYYGEVNMPPEDSLYLFAAPYYYGFYNNRLQAYCKQNLEMNVTVQNVLQILEAADKTQALDMKRHCLHIIVHQFTKVSKLPTLWSLSQQLLLDIIDSLASHISDKQCAELGADI
notes: Stably expressed in U87 cells by lentivirus; also called LZTR1-FLAG-R810W; LZTR1 RW; not shown: FLAG tag
**Q.** Does B1 bind (SNX14)?
**A.** Result: binds

**Q.** Does B1 bind (RNF123)?
**A.** Result: binds

— patent US20250262210A1 (TRUSTEES OF COLUMBIA UNIVERSITY IN THE CITY OF NEW YORK, published 2025)
